{"source": "patent US20230192853A1", "binders": {"B1": {"name": "OKT8 anti-CD8 IgG labeled with ALEXA FLUOR 647 (antibody, from another filing, V domains shown)", "VH": "EVQLQQSGAELVKPGASVKLSCTASGFNIKDTYIHFVRQRPEQGLEWIGRIDPANDNTLYASKFQGKATITADTSSNTAYMHLCSLTSGDTAVYYCGRGYGYYVFDHWGQGTTLTVSS", "VL": "DVQINQSPSFLAASPGETITINCRTSRSISQYLAWYQEKPGKTNKLLIYSGSTLQSGIPSRFSGSGSGTDFTLTISGLEPEDFAMYYCQQHNENPLTFGAGTKLELK"}}, "target": "human CD8 on cells (HPBALL cells, TALL1 cells, CD8+ T cells of human whole blood and PBMCs) (human) (UniProt P01732)", "sequence (P01732 22-234 limits assumed)": "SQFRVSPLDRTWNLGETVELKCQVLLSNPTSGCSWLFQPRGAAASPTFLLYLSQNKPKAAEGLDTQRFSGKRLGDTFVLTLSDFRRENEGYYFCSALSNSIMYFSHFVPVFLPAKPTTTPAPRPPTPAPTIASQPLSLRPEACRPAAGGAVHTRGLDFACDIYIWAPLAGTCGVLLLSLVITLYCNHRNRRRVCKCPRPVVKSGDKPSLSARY", "test": "flow cytometry of human whole blood, AF647-labeled OKT8 at 20 ng/mL against CD3 APC-Vio770"}
{"binder": "B1", "values": [{"measurement": "share of events in Q2 (CD3 positive, mAb/VHH AF647 positive)", "value": 19.7, "unit": "%"}, {"measurement": "share of events in Q3 (CD3 negative, mAb/VHH AF647 positive)", "value": 0.73, "unit": "%"}]}
